Source: article PMC9301641

How the values were obtained:
[1] = molecular target: Snof10, yeast surface-displayed; test: flow cytometry on cells
[2] = molecular target: Snof3, yeast surface-displayed; test: flow cytometry on cells
SmBiT-Snof10 = test: split reporter
Snof3-LgBiT = test: split reporter

Kd [1]: 28 nM
Kd [2]: 11 nM
Kd (SmBiT-Snof10): 20 nM
Kd (Snof3-LgBiT): 20 nM
B1: Sso6904 (natural protein)
chain: MMAMSILEDPEFVKLRQFKGKVNFNLVMQILDEIELDLRGSDNIKTSIIYVYSSHLDEIRKNKEFYDMIAEILQRYYKKIGIENVNQLILTTIK
